Here are results for 2 molecules from publication PMC7171158.

The assay deals with NusA-AR2^D443C labeled with fluorescein-5-maleimide (E. coli) (UniProt P0AFF6). Kind of assay: fluorescence polarisation; fluorescence anisotropy; 25 nM fluorescein-labeled NusA-AR2^D443C with increasing unlabeled protein; 25 °C; 50 mM Na-P pH 6.5, 100 mM NaCl, 150 mM glucose, 5 mM DTT, 0.05% Tween; two-state binding model. A general note: Polarisation of emitted light reports the rotation of a fluorescent probe.

The Kd is the constant that tells how readily two partners part at equilibrium. Read a high Kd as a looser complex.

B1: antiterminator protein Q from phage λ (λQ), full length (natural protein)
chain: MRLESVAKFHSPKSPMMSDSPRATASDSLSGTDVMAAMGMAQSQAGFGMAAFCGKHELSQNDKQKAINYLMQFAHKVSGKYRGVAKLEGNTKAKVLQVLATFAYADYCRSAATPGARCRDCHGTGRAVDIAKTELWGRVVEKECGRCKGVGYSRMPASAAYRAVTMLIPNLTQPTWSRTVKPLYDALVVQCHKEESIADNILNAVTR
B1 yielded a Kd of 268 µM.

B2: λQ deletion variant lacking 36 residues at the N-terminus (λQ^Δ36) (domain or fragment)
chain: AMGMAQSQAGFGMAAFCGKHELSQNDKQKAINYLMQFAHKVSGKYRGVAKLEGNTKAKVLQVLATFAYADYCRSAATPGARCRDCHGTGRAVDIAKTELWGRVVEKECGRCKGVGYSRMPASAAYRAVTMLIPNLTQPTWSRTVKPLYDALVVQCHKEESIADNILNAVTR
Molecule B2 returned a Kd of 271 µM.
